The values that follow come from the Human Domainome abundance scans (Beltran et al. 2025).

± gives the uncertainty stated by the source.

The chains are these.
B1: DnaJ homolog subfamily C member 2, residues 451 to 503; numbered along this chain, Q99543 (parent)
chain: SKNWSEDDLQLLIKAVNLFPAGTNSRWEVIANYMNIHSSSGVKRTAKDVIGKA

Variants of B1 are the subject of this data set. The data set can be described thus: abundance fitness (aPCA) (normalised: wild type 0, dead -1); higher = more abundant; growth selection in yeast, the domain comes from the species named. As to conditions: Homo sapiens.
Take SKNWSEDDLQLLIKAVNLFPAGTNSRWEVIANYMNIHSSSGVKRTAKDVIGGA [K52G]: the abundance fitness was -0.006 ± 0.074.

On to SKNWSEDDLQLLIKAVNLFPAGTNSRWEVIANYMNIHSSSGVKRTAKDVIGWA [K52W], for which the abundance fitness was -0.018 ± 0.12.

For SKNWSEDDLQLLIKAVNLFPAGTNSRWEVIANYMNIHSSSGVKRTAKDVIGRA [K52R], the abundance fitness was -0.119 ± 0.076.

As for SKNWSEDDLQLLIKAVNLFPAGTNSRWEVIANYMNIHSSSGVKRTAKDVIGMA [K52M], the abundance fitness was -0.247 ± 0.15.

For SKNWSEDDLQLLIKAVNLFPAGTNSRWEVIANYMNIHSSSGVKRTAKDVIGQA [K52Q], the abundance fitness is -0.012 ± 0.12.

SKNWSEDDLQLLIKAVNLFPAGTNSRWEVIANYMNIHSSSGVKRTAKDVIGSA [K52S]: the abundance fitness is -0.252 ± 0.073.

SKNWSEDDLQLLIKAVNLFPAGTNSRWEVIANYMNIHSSSGVKRTAKDVIGEA [K52E]: the abundance fitness is -0.006 ± 0.12.

Turning to SKNWSEDDLQLLIKAVNLFPAGTNSRWEVIANYMNIHSSSGVKRTAKDVIGHA [K52H], the abundance fitness was -0.126 ± 0.13.

As to SKNWSEDDLQLLIKAVNLFPAGTNSRWEVIANYMNIHSSSGVKRTAKDVIGTA [K52T], the abundance fitness is -0.197 ± 0.09.

With SKNWSEDDLQLLIKAVNLFPAGTNSRWEVIANYMNIHSSSGVKRTAKDVIGAA [K52A], the abundance fitness is -0.01 ± 0.09.

Take SKNWSEDDLQLLIKAVNLFPAGTNSRWEVIANYMNIHSSSGVKRTAKDVIGPA [K52P]: the abundance fitness was -0.077 ± 0.094.

For SKNWSEDDLQLLIKAVNLFPAGTNSRWEVIANYMNIHSSSGVKRTAKDVIGDA [K52D], the abundance fitness was -0.666 ± 0.11.

Take SKNWSEDDLQLLIKAVNLFPAGTNSRWEVIANYMNIHSSSGVKRTAKDVIGIA [K52I]: the abundance fitness was -0.094 ± 0.11.

Consider SKNWSEDDLQLLIKAVNLFPAGTNSRWEVIANYMNIHSSSGVKRTAKDVIGLA [K52L], for which the abundance fitness was -0.385 ± 0.073.

SKNWSEDDLQLLIKAVNLFPAGTNSRWEVIANYMNIHSSSGVKRTAKDVIGVA [K52V]: the abundance fitness is -0.181 ± 0.087.

For SKNWSEDDLQLLIKAVNLFPAGTNSRWEVIANYMNIHSSSGVKRTAKDVIGCA [K52C], the abundance fitness was -0.033 ± 0.097.

On to SKNWSEDDLQLLIKAVNLFPAGTNSRWEVIANYMNIHSSSGVKRTAKDVIGNA [K52N], for which the abundance fitness is -0.358 ± 0.12.

For the variant SKNWSEDDLQLLIKAVNLFPAGTNSRWEVIANYMNIHSSSGVKRTAKDVIGFA [K52F], the abundance fitness is -0.329 ± 0.11.

Take SKNWSEDDLQLLIKAVNLFPAGTNSRWEVIANYMNIHSSSGVKRTAKDDIGKA [V49D]: the abundance fitness is -0.877 ± 0.15.

In the case of SKNWSEDDLQLLIKAVNLFPAGTNSRWEVIANYMNIHSSSGVKRTAKDAIGKA [V49A], the abundance fitness is -0.219 ± 0.065.

On to SKNWSEDDLQLLIKAVNLFPAGTNSRWEVIANYMNIHSSSGVKRTAKDHIGKA [V49H], for which the abundance fitness was -0.883 ± 0.14.

Turning to SKNWSEDDLQLLIKAVNLFPAGTNSRWEVIANYMNIHSSSGVKRTAKDSIGKA [V49S], the abundance fitness is -0.886 ± 0.094.

On to SKNWSEDDLQLLIKAVNLFPAGTNSRWEVIANYMNIHSSSGVKRTAKDNIGKA [V49N], for which the abundance fitness is -0.938 ± 0.15.

As to SKNWSEDDLQLLIKAVNLFPAGTNSRWEVIANYMNIHSSSGVKRTAKDIIGKA [V49I], the abundance fitness was -0.069 ± 0.07.

On to SKNWSEDDLQLLIKAVNLFPAGTNSRWEVIANYMNIHSSSGVKRTAKDKIGKA [V49K], for which the abundance fitness was -1.02 ± 0.13.

Consider SKNWSEDDLQLLIKAVNLFPAGTNSRWEVIANYMNIHSSSGVKRTAKDFIGKA [V49F], for which the abundance fitness was -0.721 ± 0.18.

For the variant SKNWSEDDLQLLIKAVNLFPAGTNSRWEVIANYMNIHSSSGVKRTAKDEIGKA [V49E], the abundance fitness is -0.897 ± 0.11.

Regarding SKNWSEDDLQLLIKAVNLFPAGTNSRWEVIANYMNIHSSSGVKRTAKDWIGKA [V49W], the abundance fitness was -0.758 ± 0.11.

On to SKNWSEDDLQLLIKAVNLFPAGTNSRWEVIANYMNIHSSSGVKRTAKDPIGKA [V49P], for which the abundance fitness is -1.18 ± 0.14.

Consider SKNWSEDDLQLLIKAVNLFPAGTNSRWEVIANYMNIHSSSGVKRTAKDQIGKA [V49Q], for which the abundance fitness was -0.744 ± 0.16.

Turning to SKNWSEDDLQLLIKAVNLFPAGTNSRWEVIANYMNIHSSSGVKRTAKDRIGKA [V49R], the abundance fitness is -0.888 ± 0.085.

SKNWSEDDLQLLIKAVNLFPAGTNSRWEVIANYMNIHSSSGVKRTAKDLIGKA [V49L]: the abundance fitness is -0.258 ± 0.067.

Take SKNWSEDDLQLLIKAVNLFPAGTNSRWEVIANYMNIHSSSGVKRTAKDCIGKA [V49C]: the abundance fitness is -0.031 ± 0.1.

For SKNWSEDDLQLLIKAVNLFPAGTNSRWEVIANYMNIHSSSGVKRTAKDVIGKC [A53C], the abundance fitness was -0.188 ± 0.25.

In the case of SKNWSEDDLQLLIKAVNLFPAGTNSRWEVIANYMNIHSSSGVKRTAKDVIGKG [A53G], the abundance fitness is -0.112 ± 0.21.

Turning to SKNWSEDDLQLLIKAVNLFPAGTNSRWEVIANYMNIHSSSGVKRTAKDVIGKD [A53D], the abundance fitness is -0.08 ± 0.32.

In the case of SKNWSEDDLQLLIKAVNLFPAGTNSRWEVIANYMNIHSSSGVKRTAKDVILKA [G51L], the abundance fitness was -0.159 ± 0.071.

SKNWSEDDLQLLIKAVNLFPAGTNSRWEVIANYMNIHSSSGVKRTAKDVICKA [G51C]: the abundance fitness is -0.142 ± 0.091.

Turning to SKNWSEDDLQLLIKAVNLFPAGTNSRWEVIANYMNIHSSSGVKRTAKDVIYKA [G51Y], the abundance fitness was -0.099 ± 0.12.

As for SKNWSEDDLQLLIKAVNLFPAGTNSRWEVIANYMNIHSSSGVKRTAKDVITKA [G51T], the abundance fitness was -0.065 ± 0.079.

Take SKNWSEDDLQLLIKAVNLFPAGTNSRWEVIANYMNIHSSSGVKRTAKDVIKKA [G51K]: the abundance fitness was determined as 0.12 ± 0.11.

As to SKNWSEDDLQLLIKAVNLFPAGTNSRWEVIANYMNIHSSSGVKRTAKDVIPKA [G51P], the abundance fitness was -0.194 ± 0.088.

As for SKNWSEDDLQLLIKAVNLFPAGTNSRWEVIANYMNIHSSSGVKRTAKDVIQKA [G51Q], the abundance fitness is -0.043 ± 0.11.

Turning to SKNWSEDDLQLLIKAVNLFPAGTNSRWEVIANYMNIHSSSGVKRTAKDVIHKA [G51H], the abundance fitness is -0.206 ± 0.11.

SKNWSEDDLQLLIKAVNLFPAGTNSRWEVIANYMNIHSSSGVKRTAKDVIAKA [G51A]: the abundance fitness is -0.019 ± 0.065.

With SKNWSEDDLQLLIKAVNLFPAGTNSRWEVIANYMNIHSSSGVKRTAKDVIIKA [G51I], the abundance fitness was -0.176 ± 0.1.

As to SKNWSEDDLQLLIKAVNLFPAGTNSRWEVIANYMNIHSSSGVKRTAKDVISKA [G51S], the abundance fitness is -0.014 ± 0.057.

For the variant SKNWSEDDLQLLIKAVNLFPAGTNSRWEVIANYMNIHSSSGVKRTAKDVIRKA [G51R], the abundance fitness worked out at 0 ± 0.06.

As to SKNWSEDDLQLLIKAVNLFPAGTNSRWEVIANYMNIHSSSGVKRTAKDVIWKA [G51W], the abundance fitness is -0.064 ± 0.099.
